The text below walks through data of publication PMC8657904.

Experiment [1] has as its target CmbHLH2 from chrysanthemum 'Jimba', GAL4 DNA-binding domain fusion (Chrysanthemum x morifolium 'Jimba').
The target in experiment [2] is CmbHLH2.1 (alternative splicing variant of CmbHLH2) from chrysanthemum 'Jimba', GAL4 DNA-binding domain fusion (Chrysanthemum x morifolium 'Jimba').
CmbHLH2.1 (alternative splicing variant of CmbHLH2) from chrysanthemum 'Jimba', GAL4 DNA-binding domain fusion (Chrysanthemum x morifolium 'Jimba'), sequence (main, as listed by the source mutant): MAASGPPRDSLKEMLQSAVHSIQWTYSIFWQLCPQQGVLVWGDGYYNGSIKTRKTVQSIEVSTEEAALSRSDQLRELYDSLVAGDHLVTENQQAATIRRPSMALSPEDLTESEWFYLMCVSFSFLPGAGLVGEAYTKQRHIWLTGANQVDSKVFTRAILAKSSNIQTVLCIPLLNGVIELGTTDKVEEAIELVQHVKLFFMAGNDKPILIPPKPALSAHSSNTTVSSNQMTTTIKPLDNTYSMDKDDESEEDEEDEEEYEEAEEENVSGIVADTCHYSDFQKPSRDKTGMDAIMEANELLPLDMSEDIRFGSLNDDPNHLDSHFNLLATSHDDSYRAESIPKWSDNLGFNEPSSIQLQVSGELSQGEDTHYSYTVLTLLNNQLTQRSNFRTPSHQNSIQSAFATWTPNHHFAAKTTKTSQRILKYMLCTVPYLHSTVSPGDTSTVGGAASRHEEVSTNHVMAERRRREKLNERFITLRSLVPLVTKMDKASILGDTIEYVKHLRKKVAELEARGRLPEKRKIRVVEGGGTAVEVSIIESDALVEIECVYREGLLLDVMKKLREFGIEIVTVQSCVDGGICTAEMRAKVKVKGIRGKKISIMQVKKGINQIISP

CmbHLH2 from chrysanthemum 'Jimba', GAL4 DNA-binding domain fusion (Chrysanthemum x morifolium 'Jimba'), sequence (main, as listed by the source): as the sequence (main, as listed by the source mutant) above

Substance “CmMYB6 (transcript20734) from chrysanthemum 'Jimba', GAL4 activation domain fusion (natural protein)” had a dual-luciferase assay in Nicotiana benthamiana leaves: fold-induced activation of the CmDFR promoter by CmMYB6 together with CmbHLH2, compared to empty vector in experiment [1] greater than 40 times. For the same substance, in experiment [2], the dual-luciferase assay in Nicotiana benthamiana leaves: fold-induced activation of the CmDFR promoter by CmMYB6 together with CmbHLH2.1, compared to empty vector is greater than 10 times.
